The values that follow come from US20230090502.

In data set [1] the test system is T1, Biosyn#1 (cov19) Dabcyl-TSAVLQSGFRK-EDANS.
T1 sequence: TSAVLQSGFRK

Data set [2] has as its system Biosyn#7 (HRV) Dabcyl-LEALFQGP[Asp-(EDANS) SQ [Amide].
Data set [3] has as its system T2, Biosyn#6 (229e) Dabcyl-YGSTLQAGLRK-EDANS.
T2 sequence: YGSTLQAGLRK

In the case of Human Rhinovirus (HRV) 3C protease, the % Enz activity was determined as 1%; the Enzymatic activity, Slope; 5 uM substrate, 150 ng/reaction enzyme is 87 RFU/min; the “enzymatic activity, in words” value is on record as “Complete specificity (no cross reactivity) was observed for the most abundant common cold virus, HRV”. Also, in data set [1], the % Enz activity is -1%; the Enzymatic activity, Slope; 5 uM substrate, 150 ng/reaction enzyme is -12 RFU/min; the “enzymatic activity, in words” value was “Complete specificity (no cross reactivity) was observed for the most abundant common cold virus, HRV”. In data set [2], the % Enz activity turned out to be 100%; the Enzymatic activity, Slope; 5 uM substrate, 150 ng/reaction enzyme came to 1040 RFU/min; the “enzymatic activity, in words” value is given as “The Biosyn #7 substrate was specific for HRV”. Also, in data set [3], the % Enz activity was -7%; the Enzymatic activity, Slope; 5 uM substrate, 150 ng/reaction enzyme came to 44 RFU/min; the “enzymatic activity, in words” value is reported as “Complete specificity (no cross reactivity) was observed for the most abundant common cold virus, HRV”.
